Reference: US20210230238A1 (DEUTSCHES KREBSFORSCHUNGSZENTRUM STIFTUNG DES FFENTLICHEN …, published 2021)

What was measured:
Assay in all cases: SPR, Dectin-1 immobilized, 1:1 model
[1] = target: T1, murine annexin A1 (murine, UniProt P10107 2-346)
T1 construct: Recombinant protein; also called mAnxA1
T1 sequence: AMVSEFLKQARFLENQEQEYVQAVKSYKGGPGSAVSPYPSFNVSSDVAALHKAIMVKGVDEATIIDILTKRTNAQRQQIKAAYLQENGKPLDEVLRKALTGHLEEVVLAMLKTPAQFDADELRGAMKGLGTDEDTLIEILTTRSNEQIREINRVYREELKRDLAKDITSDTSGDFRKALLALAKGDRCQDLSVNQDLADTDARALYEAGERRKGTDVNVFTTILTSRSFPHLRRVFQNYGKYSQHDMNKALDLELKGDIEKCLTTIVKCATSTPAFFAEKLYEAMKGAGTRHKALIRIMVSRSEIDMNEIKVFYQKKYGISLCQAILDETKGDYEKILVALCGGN

[2] = target: T2, murine annexin A1 core domain (murine, UniProt P10107 41-344)
T2 construct: Recombinant core domain; also called mAnxA1 core; core annexin A1 domain
T2 sequence: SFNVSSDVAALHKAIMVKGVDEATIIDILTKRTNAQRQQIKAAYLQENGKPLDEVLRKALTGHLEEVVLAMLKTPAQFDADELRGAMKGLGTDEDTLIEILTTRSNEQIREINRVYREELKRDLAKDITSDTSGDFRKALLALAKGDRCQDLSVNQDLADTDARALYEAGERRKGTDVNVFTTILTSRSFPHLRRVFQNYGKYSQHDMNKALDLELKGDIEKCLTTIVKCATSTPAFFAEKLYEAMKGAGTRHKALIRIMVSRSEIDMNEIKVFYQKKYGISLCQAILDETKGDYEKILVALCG

[3] = target: T3, murine annexin A5 (murine, UniProt P48036 2-319)
T3 construct: Recombinant protein; also called mAnxA5
T3 sequence: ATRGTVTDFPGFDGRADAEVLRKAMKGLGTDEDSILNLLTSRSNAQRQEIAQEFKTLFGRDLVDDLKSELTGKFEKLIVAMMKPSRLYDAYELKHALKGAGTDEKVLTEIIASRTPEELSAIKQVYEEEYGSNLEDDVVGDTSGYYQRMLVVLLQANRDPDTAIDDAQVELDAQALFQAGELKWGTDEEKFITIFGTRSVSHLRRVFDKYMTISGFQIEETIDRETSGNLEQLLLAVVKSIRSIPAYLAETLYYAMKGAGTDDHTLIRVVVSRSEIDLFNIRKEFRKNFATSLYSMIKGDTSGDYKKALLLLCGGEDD

[4] = target: T4, murine annexin A13 (murine, UniProt Q99JG3 2-317)
T4 construct: Recombinant protein; also called mAnxA13
T4 sequence: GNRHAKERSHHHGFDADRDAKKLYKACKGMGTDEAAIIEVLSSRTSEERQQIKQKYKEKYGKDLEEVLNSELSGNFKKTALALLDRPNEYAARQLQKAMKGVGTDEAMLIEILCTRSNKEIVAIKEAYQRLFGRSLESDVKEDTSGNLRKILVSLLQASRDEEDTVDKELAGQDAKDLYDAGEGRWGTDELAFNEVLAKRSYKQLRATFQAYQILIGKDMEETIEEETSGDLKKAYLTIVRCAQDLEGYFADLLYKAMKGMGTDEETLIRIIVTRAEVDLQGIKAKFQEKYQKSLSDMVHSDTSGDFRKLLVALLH

- Kd [1]: ~100 nM
- Kd [2]: ~100 nM
- Kd [3]: ~100 nM
- Kd [4]: ~100 nM
B1: Dectin-1 (receptor)
chain: GHNSGRNPEEKDNFLSRNKENHKPTESSLDEKVAPSKASQTTGGFSQPCLPNWIMHGKSCYLFSFSGNSWYGSKRHCSQLGAHLLKIDNSKEFEFIESQTSSHRINAFWIGLSRNQSEGPWFWEDGSAFFPNSFQVRNTAPQESLLHNCVWIHGSEVYNQICNTSSYSICEKEL
